{"source": "paper doi:10.1101/2024.06.13.598862", "about": "(bioRxiv, 2024)", "biological_target": "full-length human tau, null cysteine variant (C291S, C322S) (human, UniProt P10636-8 1-441, C291S | C322S)", "assay": "co-phase separation", "data": [{"binder": "Ydj1, yeast Hsp40 (natural protein, UniProt P25491 1-409, looked up) MVKETKFYDILGVPVTATDVEIKKAYRKCALKYHPDKNPSEEAAEKFKEASAAYEILSDPEKRDIYDQFGEDGLSGAGGAGGFPGGGFGFGDDIFSQFFGAGGAQRPRGPQRGKDIKHEISASLEELYKGRTAKLALNKQILCKECEGRGGKKGAVKKCTSCNGQGIKFVTRQMGPMIQRFQTECDVCHGTGDIIDPKDRCKSCNGKKVENERKILEVHVEPGMKDGQRIVFKGEADQAPDVIPGDVVFIVSERPHKSFKRDGDDLVYEAEIDLLTAIAGGEFALEHVSGDWLKVGIVPGEVIAPGMRKVIEGKGMPIPKYGGYGNLIIKFTIKFPENHFTSEENLKKLEEILPPRIVPAIPKKATVDECVLADFDPAKYNRTRASRGGANYDSDEEEQGGEGVQCASQ", "values": [{"measurement": "binding result", "result": "binds"}]}]}
